Assay results as given in article PMC11756183.

Test: IP and western blot in MSC-T
Settings: glycan lost; control: wild-type GPNMB (MSC-T/OEG)

B1: GPNMB (Glycoprotein non-metastatic melanoma protein B): N249Q (protein)
parent chain: MESLCGVLGFLLLAAGLPLQAAKRFRDVLGHEQYPDHMREHNQLRGWSSDENEWDEHLYPVWRRGDGRWKDSWEGGRVQAVLTSDSPALVGSNITFVVNLVFPRCQKEDANGNIVYEKNCRNDLGLTSDLHVYNWTAGADDGDWEDGTSRSQHLRFPDRRPFPRPHGWKKWSFVYVFHTLGQYFQKLGRCSARVSINTVNLTAGPQVMEVTVFRRYGRAYIPISKVKDVYVITDQIPVFVTMSQKNDRNLSDEIFLRDLPIVFDVLIHDPSHFLNDSAISYKWNFGDNTGLFVSNNHTLNHTYVLNGTFNLNLTVQTAVPGPCPPPSPSTPPPPSTPPSPPPSPLPTLSTPSPSLMPTGYKSMELSDISNENCRINRYGYFRATITIVEGILEVSIMQIADVPMPTPQPANSLMDFTVTCKGATPMEACTIISDPTCQIAQNRVCSPVAVDGLCLLSVRRAFNGSGTYCVNFTLGDDASLALTSTLISIPGKDPDSPLRAVNGVLISIGCLAVLVTMVTILLYKKHKAYKPIGNCPRNTVKGKGLSVLLSHAKAPFFRGDQEKDPLLQDKPRTL
  expression_or_secretion: decreases
